# Test results from IntAct's records for PubMed 29039417.
# B1: Protein PTHB1 (Homo sapiens), Q3SYG4 (parent)
# chain: MSLFKARDWWSTILGDKEEFDQGCLCLANVDNSGNGQDKIIVGSFMGYLRIFSPHPAKTGDGAQAEDLLLEVDLRDPVLQVEVGKFVSGTEMLHLAVLHSRKLCVYSVSGTLGNVEHGNQCQMKLMYEHNLQRTACNMTYGSFGGVKGRDLICIQSMDGMLMVFEQESYAFGRFLPGFLLPGPLAYSSRTDSFLTVSSCQQVESYKYQVLAFATDADKRQETEQQKLGSGKRLVVDWTLNIGEQALDICIVSFNQSASSVFVLGERNFFCLKDNGQIRFMKKLDWSPSCFLPYCSVSEGTINTLIGNHNNMLHIYQDVTLKWATQLPHIPVAVRVGCLHDLKGVIVTLSDDGHLQCSYLGTDPSLFQAPNVQSRELNYDELDVEMKELQKIIKDVNKSQGVWPMTEREDDLNVSVVVSPNFDSVSQATDVEVGTDLVPSVTVKVTLQNRVILQKAKLSVYVQPPLELTCDQFTFEFMTPDLTRTVSFSVYLKRSYTPSELEGNAVVSYSRPTDRNPDGIPRVIQCKFRLPLKLICLPGQPSKTASHKITIDTNKSPVSLLSLFPGFASQSDDDQVNVMGFHFLGGARITVLASKTSQRYRIQSEQFEDLWLITNELILRLQEYFEKQGVKDFACSFSGSIPLQEYFELIDHHFELRINGEKLEELLSERAVQFRAIQRRLLARFKDKTPAPLQHLDTLLDGTYKQVIALADAVEENQGNLFQSFTRLKSATHLVILLIALWQKLSADQVAILEAAFLPLQEDTQELGWEETVDAAISHLLKTCLSKSSKEQALNLNSQLNIPKDTSQLKKHITLLCDRLSKGGRLCLSTDAAAPQTMVMPGGCTTIPESDLEERSVEQDSTELFTNHRHLTAETPRPEVSPLQGVSE
# partner: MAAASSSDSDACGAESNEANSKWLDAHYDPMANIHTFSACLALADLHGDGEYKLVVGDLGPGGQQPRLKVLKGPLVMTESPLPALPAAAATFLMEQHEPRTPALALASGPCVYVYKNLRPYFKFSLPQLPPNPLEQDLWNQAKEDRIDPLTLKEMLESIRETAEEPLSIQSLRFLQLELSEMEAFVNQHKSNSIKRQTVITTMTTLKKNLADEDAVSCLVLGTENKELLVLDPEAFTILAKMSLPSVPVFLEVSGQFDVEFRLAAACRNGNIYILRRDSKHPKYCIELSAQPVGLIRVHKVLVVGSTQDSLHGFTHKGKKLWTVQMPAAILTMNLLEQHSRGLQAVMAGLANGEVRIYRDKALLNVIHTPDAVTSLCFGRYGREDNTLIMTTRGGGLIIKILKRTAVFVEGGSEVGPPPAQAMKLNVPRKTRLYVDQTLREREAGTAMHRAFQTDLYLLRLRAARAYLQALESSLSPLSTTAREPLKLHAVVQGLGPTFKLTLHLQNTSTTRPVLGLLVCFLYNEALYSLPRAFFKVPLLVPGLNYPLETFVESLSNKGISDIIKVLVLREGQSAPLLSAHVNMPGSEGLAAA
# Variants of: B1
# Conditions: with bbs1_human BBS1, Q8NFJ9
row,Variant,effect of a mutation on the interaction
1,I640K,with no effect
2,L452E,with no effect
3,D608E,with no effect
4,L662E,with no effect
5,L531K,with no effect
6,Q672A,with no effect
7,F636A,with no effect
8,R587A,with no effect
9,Y623A,with no effect
10,S541E,with no effect
11,L779E,with no effect
12,N553E,with no effect
13,R449A,with no effect
14,S880K,with no effect
15,E644A,with no effect
16,K821A,with no effect
17,S667F,disrupting interaction strength
18,L559K,with no effect
19,I612E,with no effect
20,P875K,with no effect

row,Variant,effect of a mutation on the interaction
1,V706K,with no effect
2,K454A,with no effect
3,P479E,with no effect
4,G584K,with no effect
5,A682K,with no effect
6,L882K,with no effect
7,I451K,with no effect
8,S828E,with no effect
9,S439A,with no effect
10,P556K,with no effect
11,L618E,with no effect
12,L808K,with no effect
13,Q693A,with no effect
14,G718S,disrupting interaction strength
15,T482P,disrupting interaction strength
16,I649A,with no effect
17,G823K,with no effect
18,K781A,with no effect
19,Q453K,with no effect
20,I738A,disrupting interaction strength

row,Variant,effect of a mutation on the interaction
1,L799A,with no effect
2,E862K,with no effect
3,T805A,with no effect
4,T845A,with no effect
5,F582E,with no effect
6,L863E,with no effect
7,V557A,with no effect
8,T813E,with no effect
9,V440E,with no effect
10,Q722K,with no effect
11,S637E,with no effect
12,I657K,with no effect
13,P564E,with no effect
14,V671A,with no effect
15,K554E,with no effect
16,T468K,with no effect
17,L457E,with no effect
18,L536K,with no effect

# The next lines start with the values.
row,effect of a mutation on the interaction,Variant
1,with no effect,A427K
2,disrupting interaction strength,R587T
3,with no effect,L500A
4,with no effect,V772K
5,disrupting interaction strength,T613I
6,with no effect,S745E
7,with no effect,V706E
8,disrupting interaction strength,Q742L
9,with no effect,Q742E
10,with no effect,L882E
11,with no effect,D747A
12,disrupting interaction strength,K809E
13,with no effect,L851E
14,with no effect,L851A
15,with no effect,K630E
16,disrupting interaction strength,A633V
17,with no effect,T874A
18,with no effect,G701K
19,with no effect,C826A
20,disrupting interaction strength,M837S
21,with no effect,Q643A
22,with no effect,P497A
23,with no effect,H546E
24,with no effect,Q602A
25,with no effect,S570K
26,with no effect,T813A
27,with no effect,V838A
28,disrupting interaction strength,V838K
29,with no effect,R619A

# Variants of: B1
# Conditions: with bbs1_human BBS1, Q8NFJ9
# Remark: another data set of the same source
row,effect of a mutation on the interaction,Variant
1,disrupting interaction strength,S745E
